According to patent US11504374B2, “Compositions and methods for the treatment of a beta-catenin-associated disease or disorder” (Dicerna Pharmaceuticals, Inc., priority 2016, dated 2022):

Assays:
LS411N tumors = assay: Tumor growth inhibition, subcutaneous LS411N colorectal tumors in nude mice; assay type: in vivo; details: for growth inhibition: single agent, 0.1 mg/kg; for tumor growth inhibition: 2 cycles
Procedure: (§1) 6-8 week old Hsd:Athymic Nude-Foxn1^nu mice (hereby referred to as nude mice) were injected subcutaneously with LS411N (5×10^6 cells), SW403 (5×10^6 cells), Ls174t (5×10^6 cells) or Hep3B (5×10^6 cells+matrigel) under the right shoulder. Tumor volume was measured twice a week to monitor tumor growth/suppression. Dosing was initiated when the tumors reached 200-250 mm^3. For tumor growth inhibition studies, animals were randomized and assigned to different cohorts and subjected to dosing cycles. BCAT1 or LNP was given intravenously via lateral tail vein at a total volume of 10 ml/kg. Trametinib was given orally at a volume of 10 mi/kg.
(§2) Human cell lines LS411N and SW403, Ls174t and Hep3B were obtained from ATCC (Manassas, Va.) and grown in RPMI/DMEM medium supplemented with 10% FBS. LS411N is a human colorectal cell line harboring mutations in the adenomatous polyposis coli (APC) and BRAF genes. APC is a component of the destruction complex in the Wnt signaling pathway. SW403 is a human colorectal cell line harboring mutations in the APC and KRAS genes. LS174t is a human colorectal cell line harboring mutations in the CTNNB1 and KRAS genes.
The single agent efficacy of BCAT1 was evaluated at different dose levels in different colorectal cancer models. […] FIG. 2A. […] FIG. 2C. […] Without intending to be bound by any theory, it appears that the Wnt pathway may be reactivated when treatment is stopped.
We then evaluated the single agent Trametinib in LS411N tumor bearing mice at different dose levels (3, 1 and 0.3 mg/kg) and selected […] as the dose to be used in the combination study. FIG. 5A. For BCAT1, a dose of 0.1 mg/kg was selected from the previous single agent efficacy studies to be used in combination with Trametinib to treat LS411N tumors. […] FIG. 5B.

SW403 tumors = assay: Tumor growth inhibition, subcutaneous SW403 colorectal tumors in nude mice; assay type: in vivo; details: for tumor growth inhibition: each agent alone, 0.3 mg/kg
Procedure: as §1, §2
The combination treatment was also evaluated in a third CRC model (SW403) that has APC and KRAS mutations. As described for the other two models, we first checked the single agent Trametinib efficacy at different dose levels in these tumors and picked 0.3 mg/kg as the optimal dose for the combination study (FIG. 5C). BCAT1 was administered at the same dose (0.3 mg/kg) and used in combination with Trametinib.
In these CRC models, tumors generally develop resistance to Trametinib over time. To investigate this resistance, SW403 tumors were continuously treated with Trametinib at 3 mg/kg doses (qdx3, 3 mg/kg×3) until the tumors stopped responding to the treatment. Once the tumors stopped responding and became resistant to Trametinib treatment, we treated the tumors with a combination of BCAT1 and Trametinib (qdx3, 3mpk+ qdx3, 3mpk) (around Day 42). […]

Ls174t liver metastases = assay: Survival in Ls174t CRC liver metastases model; assay type: in vivo, nude mice; details: for mice that died around day 48: 2 mg/kg or 2+2 mg/kg, start 3 weeks after implantation; for median survival: single agent 2 mg/kg, start 3 weeks after implantation of 2×10^6 cells
Procedure: (§3) Colorectal cancer (CRC) liver metastases models were generated by surgically implanting 1-2×10^6 cells in the spleen of nude mice after midline abdominal incision. After surgery, the abdominal incision was closed with 5-0 to 6-0 absorbable, nonbraided suture and the skin was closed with a single wound clip. Mice were anesthetized with isoflurane before initiating the surgery and during surgery. Buprenorphine was given preoperatively and post-operatively at 0.1 mg/kg subcutaneously for pain relief. Mice were held in a pathogen-free environment and all procedures involving animals were performed according to protocols approved by Dicerna Pharmaceuticals' Institutional Animal Care and Use Committee (Dicerna-IACUC).
We developed multiple CRC liver metastatic models by surgically implanting Ls174t and LS411N cells in spleen.
Before we evaluated the combination strategies in these CRC metastatic models, we ran a single agent Trametinib efficacy in the Ls174t liver metastatic model. Fewer number of Ls174t cells (1×10^6 cells) were implanted in the spleen this model to reduce the aggressiveness of the tumor progression. 18 days after the implantation, mice were randomly distributed into 3 groups and treated with PBS, Trametinib at 1 mg/kg or Trametinib at 3 mg/kg dose levels (qdx3, 3 cycles).
Next we ran a combination efficacy study in mice bearing Ls714t liver metastasis based on the doses used in the single agent efficacy studies. This time, the treatment was initiated 3 weeks after tumor implantation of 2×10^6 Ls174t cells. BCAT1, Placebo, and Trametinib were dosed at 2 mg/kg and the combination groups (Placebo+Trametinib or BCAT1+Trametinib) were dosed at 2+2 mg/kg.

Hep3B tumors = assay: Tumor growth inhibition, mouse model bearing Hep3B tumors; assay type: in vivo; details: administered individually at 2 mg/kg
Procedure: as §1
Combination therapy with BCAT1 and a nucleic acid inhibitor molecule that targets the c-Myc gene (“MYC1”) was also evaluated. MYC1 has a 25 base pair passenger strand and a 27 base pair guide strand that form a duplex region consisting of 25 base pairs, where the 3′ end of the passenger strand and 5′ end of the guide strand form a blunt end, and the 3′ end of the guide strand consists of a single-stranded, two-base overhang. FIG. 9. The MYC1 construct was formulated in EnCore LNP.

[1] = test system: multiple tumor types (xenograft, PDX, GEM tumors); assay: Delivery of LNP formulated BCAT1 nucleic acid payload to tumors in mouse models; assay type: in vivo
Source text: The BCAT1 construct was formulated in EnCore lipid nanoparticles (LNP).

LS174t tumors = assay: Tumor growth inhibition, subcutaneous Ls174t colorectal tumors in nude mice; assay type: in vivo; details: qdx3, 3 mg/kg, 2 cycles
Procedure: as §1, §2
Combination therapy with BCAT1 and an MEK inhibitor (trametinib) was evaluated. Trametinib (99% purity) was dissolved in DMSO to make a clear solution of 5 mg/ml. […]

RKO tumors = assay: Tumor growth inhibition, β-catenin/APC wild type RKO colorectal tumors; assay type: in vivo; details: qdx3, 3 mg/kg, 2 cycles
LS411N liver metastases = assay: Survival in LS411N CRC liver metastases model; assay type: in vivo, nude mice; details: qdx3, 3 mg/kg, 3 weeks
Procedure: as §3
We developed multiple CRC liver metastatic models by surgically implanting Ls174t and LS411N cells in spleen. 2-5 weeks after implanting 2×10^6 cells, the primary Ls174t tumors grown in the spleen spontaneously metastasized to the liver. To see if BCAT1 monotherapy will treat both primary and metastatic tumors and improve survival, 2 weeks after the tumor implantation, mice bearing Ls174t tumors were treated with BCAT1 or placebo at 3 mg/kg doses (qdx3, 3 mg/kg, 3 cycles). […] The […] survival time (“MST”) of the control-treated group is 31 days, whereas the MST of the BCAT1-treated group is 46 days).
Similarly, the mice with LS411N liver metastases were also treated with BCAT1 or controls (placebo or PBS) at the same dose levels for 3 weeks. Unlike the Ls174t tumors, LS411N tumors took a much longer time to metastasize to the liver after implanting 2×10^6 cells in the spleen. The treatment was initiated 18 days after the implantation of LS411N cells in the spleen. It took 112 days for all the control treated mice to die. […] It took about 6 months for all of the BCAT1-treated mice to die. In summary, BCAT treatment extended the survival of mice bearing LS411N liver metastasis by up to two-fold compared to the control treatment groups (MST of PBS/Placebo treatment groups is 99-102 days, whereas the MST of the BCAT1-treated group is 181 days).

[2] = start 18 days after implantation

Q: `CC(=O)Nc1cccc(-n2c(=O)n(C3CC3)c(=O)c3c(Nc4ccc(I)cc4F)n(C)c(=O)c(C)c32)c1` [Trametinib, trametinib] was tested. Which growth inhibition (LS411N tumors) did it give?
A: about 20%

Q: What about the tumor growth inhibition (SW403 tumors) of the same molecule?
A: 40%

Q: What about the “mean survival time (MST)” value (Ls174t liver metastases; 1 mg/kg, qdx3, 3 cycles, 1×10^6 cells, start 18 days after implantation) of the same molecule?
A: 47 days

Q: And the “mice that died around day 48” value (Ls174t liver metastases)?
A: 90%

Q: What about the “mean survival time (MST)” value (Ls174t liver metastases; 3 mg/kg, qdx3, 3 cycles, 1×10^6 cells, start 18 days after implantation) of the same molecule?
A: 65 days

Q: And the median survival (Ls174t liver metastases; qdx3, 3 cycles)?
A: 44 days

Q: For “MYC1: nucleic acid inhibitor molecule targeting the c-Myc gene; sense strand SEQ ID NO:5, antisense strand SEQ ID NO:6 (sense AGCUUUUUUGCCCUGCGUGACCAGA; antisense UCUGGUCACGCAGGGCAAAAAAGCUCC; listed as RNA, chemistry not given here)”, which growth inhibition (Hep3B tumors) is on record?
A: 40%

B1: BCAT1: nucleic acid inhibitor molecule targeting the β-catenin gene; sense strand SEQ ID NO:1, antisense strand SEQ ID NO:2 (nucleic acid)
sense: AGAAUACAAAUGAUGUAGAAACAGCC
antisense: UAGCUAUCGTGGCUGUUUCUACAUCAUUUGUAUUCUGC
modifications: chemistry not given here
Q: For B1, which “delivery of BCAT1 to tumors” value ([1]; HCT116, DLD1, HL60) is on record?
A: Negative: HCT116, DLD1, HL60

Q: What about the “delivery of the nucleic acid payload to tumors” value ([1]; LNP formulated, tumor types of Table I (subcutaneous, orthotopic, disseminated, metastatic xenografts, PDX, GEM)) of the same molecule?
A: effectively delivered

Q: And the “tumor growth after therapy discontinued” value (LS411N tumors; qdX3, 3 mg/kg, discontinued after the second cycle)?
A: tumor growth resumed to a level roughly comparable to untreated subjects

Q: What about the tumor growth inhibition (LS411N tumors; qdx3, 0.3 mg/kg) of the same molecule?
A: 47%

Q: What about the “tumor growth inhibition relative to vehicle-treated animals” value (LS411N tumors; qdx3, 1 mg/kg, two weekly dosing cycles, i.v.) of the same molecule?
A: 82%

Q: And the tumor growth inhibition (LS411N tumors; qwx1, 3 mg/kg, weekly dosing)?
A: 60%

Q: What about the growth inhibition (LS411N tumors) of the same molecule?
A: about 20%

Q: And the tumor growth inhibition (SW403 tumors)?
A: 20%

Q: What about the anti-tumor efficacy (SW403 tumors; qdx3, 3 mg/kg, 2 cycles) of the same molecule?
A: Robust efficacy

Q: And the anti-tumor efficacy (LS174t tumors)?
A: Robust efficacy

Q: What about the anti-tumor efficacy (RKO tumors) of the same molecule?
A: No efficacy

Q: And the growth inhibition (Hep3B tumors)?
A: 47%

Q: And the “mice that died around day 48” value (Ls174t liver metastases)?
A: 90%

Q: What about the “mean survival time (MST)” value (Ls174t liver metastases; qdx3, 3 mg/kg, 3 cycles, start 2 weeks after implantation of 2×10^6 cells) of the same molecule?
A: 46 days

Q: What about the median survival (Ls174t liver metastases; qdx3, 3 cycles) of the same molecule?
A: 45 days

Q: And the “extension of survival compared to control treatment groups” value (LS411N liver metastases)?
A: up to two-fold

Q: What about the “time for all treated mice to die” value (LS411N liver metastases) of the same molecule?
A: about 6 months

Q: And the “mean survival time (MST)” value (LS411N liver metastases; [2])?
A: 181 days

Q: What about the “mice surviving at 112 days post-implant” value (LS411N liver metastases; [2]) of the same molecule?
A: 75%
